In patent US20220143148A1, “COMPOSITIONS AND METHODS FOR MODULATING CGRP SIGNALING TO REGULATE INTESTINAL INNATE LYMPHOID CELLS” (The Broad Institute, Inc., priority 2019, published 2022):

Test system: small intestinal immune cells
Test: Droplet-based scRNA-seq of small intestinal immune cells (LP and PP), OVA vs PBS, clustering and differential expression
Format: in vivo, mouse
From the text: To comprehensively characterize small intestinal immune cells, Applicants generated scRNA-Seq profiles for 58,067 immune cells collected from lamina propria (LP) and Peyer's patch (PP) regions at steady state and after induction of a type 2 inflammatory reaction to ovalbumin (OVA) (Brandt et al., 2003) (FIGS. 1A and 8A). To ensure sufficient representation of rare cells, Applicants combined a normalization strategy—removing by flow sorting either a portion of IgD+ naïve B cells, which are the most abundant cell type in PPs, or all CD19+ and CD3+ T cells (FIG. 8B, Methods)—with profiling of a sufficiently large number of cells number (P>0.99 to recover at least 15 cells from each cluster, Methods) by massively parallel scRNA-seq (Haber et al., 2017) (Methods). Applicants obtained 36,797 and 21,270 high quality cells passing initial filtering (Methods) from PP and LP regions, respectively.
Overall, Applicants annotated 27 cell subsets across the two compartments, spanning T cells, B cells, ILCs, dendritic cells (DCs), myeloid cells and stromal cells, in frequencies ranging from 0.07% to 14%. Briefly, Applicants first partitioned the cells from the PP regions by unsupervised clustering (Methods) into 46 clusters, retained the 97% of cells that were robustly assigned cell identities in each cluster (Methods), assigned the cells from the LP regions to the 46 clusters using a classifier (Methods), and visualized the data with scvis (Ding et al., 2018), a deep generative model-based method (FIGS. 1B and 8C, Methods). Next, Applicants identified genes that were differentially expressed between the cells in each cluster and the remaining cells (Table 1, Methods), as well as between pairs of clusters (Table 2), to elucidate identities of similar cell types/states. Applicants excluded from downstream analysis clusters mostly consisting of contaminants from epithelium, likely doublets, or cells with a small number of Unique Molecular Identifiers (UMIs) (FIGS. 1C and 8D), or lacking distinct markers (Methods). Altogether, Applicants retained 27 clusters spanning 85% of the cells and each associated with distinct marker genes (FIG. 8E, Methods).
To induce allergic reaction to OVA, 6 to 7 weeks old mice were sensitized twice, two weeks apart, with 50 μg of OVA plus 1 mg of aluminum potassium sulfate adjuvant via intraperitoneal injection. Two weeks later, mice were orally administered with 50 mg of OVA on every other day for a total of five times. 1 μg of α-CGRP peptide was administered simultaneously when indicated. Mice were deprived of food for 3-4 hours in cages with wood chip bedding for limiting antigen degradation in the stomach before each intragastric challenge.
Isolation of cells from Peyer's patches (PPs). Peyer's patches (PPs) were carefully dissected from the small intestine under a stereo microscope using a fine scissor, pierced once with a fine forcep. Tissues were digested in freshly made digestion buffer (RPMI-1640 containing 100 μg/ml Liberase™ and 50 μg/ml DNase I at 37° C. on a roto-mixer. After 15 min, tissues were very gently mixed using a 1 ml pipette. The supernatant was collected and added to ice-cold MACS buffer (pH 7.4; PBS plus 2% FCS and 2 mM EDTA). Pre-warmed (37° C.) fresh digestion buffer was added to the remaining tissues. After rotation at 37° C. for 15 min, the mixture was vigorously mixed using a 1 ml pipette for 1 min. Supernatants from the two steps were combined and passed through 70 μm filters and stained for FACS (below).
Isolation of cells from the lamina propria (LP). The small intestines were opened longitudinally and washed in ice-cold PBS. For scRNA-seq, roughly 0.5 cm of fragments from each of the distal, middle and proximal regions without visible PPs were collected. Epithelial cells were dissociated by tissue rotation in pre-warmed (37° C.) PBS containing 10 mM EDTA at 37° C. for 15 min, followed by additional incubation on ice for 15 min. Tissues were then shaken vigorously. […]

B1: OVA (protein, UniProt P01012 2-386, looked up)
Ovalbumin: GSIGAASMEFCFDVFKELKVHHANENIFYCPIAIMSALAMVYLGAKDSTRTQINKVVRFDKLPGFGDSIEAQCGTSVNVHSSLRDILNQITKPNDVYSFSLASRLYAEERYPILPEYLQCVKELYRGGLEPINFQTAADQARELINSWVESQTNGIIRNVLQPSSVDSQTAMVLVNAIVFKGLWEKAFKDEDTQAMPFRVTEQESKPVQMMYQIGLFRVASMASEKMKILELPFASGTMSMLVLLPDEVSGLEQLESIINFEKLTEWTSSNVMEERKIKVYLPRMKMEEKYNLTSVLMAMGITDVFSSSANLSGISSAESLKISQAVHAAHAEINEAGREVVGSAEAGVDAASVSEEFRADHPFLFCIKHIATNAVLFFGRCVSP
Question: What does the source list for B1?
Answer: D16Ertd472e: LN (average fold change) (cluster ID 4, PP, OVA vs PBS): −0.412; Dnaja1: LN (average fold change) (cluster ID 4, PP, OVA vs PBS): −0.300; Dnajb9: LN (average fold change) (cluster ID 4, PP, OVA vs PBS): −0.322; Egln3: LN (average fold change) (cluster ID 4, PP, OVA vs PBS): −0.350; Fam46a: LN (average fold change) (cluster ID 4, PP, OVA vs PBS): −0.500; Fibp: LN (average fold change) (cluster ID 4, PP, OVA vs PBS): −0.268; Furin: LN (average fold change) (cluster ID 4, PP, OVA vs PBS): −0.203; Gatad1: LN (average fold change) (cluster ID 4, PP, OVA vs PBS): −0.316; Gcnt2: LN (average fold change) (cluster ID 4, PP, OVA vs PBS): −0.352; Gimap3: LN (average fold change) (cluster ID 4, PP, OVA vs PBS): 0.275; Git2: LN (average fold change) (cluster ID 4, PP, OVA vs PBS): 0.350; Gnb1: LN (average fold change) (cluster ID 4, PP, OVA vs PBS): −0.255; H2-T23: LN (average fold change) (cluster ID 4, PP, OVA vs PBS): −0.260; Herpud1: LN (average fold change) (cluster ID 4, PP, OVA vs PBS): −0.214; Icos: LN (average fold change) (cluster ID 4, PP, OVA vs PBS): −0.291; Il2ra: LN (average fold change) (cluster ID 4, PP, OVA vs PBS): 0.378; Il18r1: LN (average fold change) (cluster ID 4, PP, OVA vs PBS): 0.193; Irf2: LN (average fold change) (cluster ID 4, PP, OVA vs PBS): 0.312; Irs2: LN (average fold change) (cluster ID 4, PP, OVA vs PBS): −0.372; Itgav: LN (average fold change) (cluster ID 4, PP, OVA vs PBS): −0.394; Klf13: LN (average fold change) (cluster ID 4, PP, OVA vs PBS): −0.255; Klrk1: LN (average fold change) (cluster ID 4, PP, OVA vs PBS): −0.613; Leng9: LN (average fold change) (cluster ID 4, PP, OVA vs PBS): −0.375; Map3k14: LN (average fold change) (cluster ID 4, PP, OVA vs PBS): −0.515; Mast4: LN (average fold change) (cluster ID 4, PP, OVA vs PBS): −0.207; Mbnl2: LN (average fold change) (cluster ID 4, PP, OVA vs PBS): −0.436; Minos1: LN (average fold change) (cluster ID 4, PP, OVA vs PBS): 0.218; Morf4l2: LN (average fold change) (cluster ID 4, PP, OVA vs PBS): −0.252; Neat1: LN (average fold change) (cluster ID 4, PP, OVA vs PBS): 0.447; Nedd8: LN (average fold change) (cluster ID 4, PP, OVA vs PBS): 0.234; Plekhg1: LN (average fold change) (cluster ID 4, PP, OVA vs PBS): −0.229; Ppp1r16b: LN (average fold change) (cluster ID 4, PP, OVA vs PBS): −0.157; Ppp2ca: LN (average fold change) (cluster ID 4, PP, OVA vs PBS): −0.432; Ptger2: LN (average fold change) (cluster ID 4, PP, OVA vs PBS): 0.347; Ptpn7: LN (average fold change) (cluster ID 4, PP, OVA vs PBS): 0.323; Raf1: LN (average fold change) (cluster ID 4, PP, OVA vs PBS): 0.457; Ramp3: LN (average fold change) (cluster ID 4, PP, OVA vs PBS): −0.380; Rassf5: LN (average fold change) (cluster ID 4, PP, OVA vs PBS): 0.506; Rcn2: LN (average fold change) (cluster ID 4, PP, OVA vs PBS): −0.225; Rel: LN (average fold change) (cluster ID 4, PP, OVA vs PBS): −0.354; Rgs1: LN (average fold change) (cluster ID 4, PP, OVA vs PBS): −0.221; Rgs3: LN (average fold change) (cluster ID 4, PP, OVA vs PBS): 0.447; Rnf19b: LN (average fold change) (cluster ID 4, PP, OVA vs PBS): −0.242; Rpa3: LN (average fold change) (cluster ID 4, PP, OVA vs PBS): 0.541; S100a6: LN (average fold change) (cluster ID 4, PP, OVA vs PBS): 0.370; S100a10: LN (average fold change) (cluster ID 4, PP, OVA vs PBS): 0.215; Saraf: LN (average fold change) (cluster ID 4, PP, OVA vs PBS): −0.187; Sat1: LN (average fold change) (cluster ID 4, PP, OVA vs PBS): 0.222; Scn1b: LN (average fold change) (cluster ID 4, PP, OVA vs PBS): −0.273; Sec11a: LN (average fold change) (cluster ID 4, PP, OVA vs PBS): 0.283; Serpina3g: LN (average fold change) (cluster ID 4, PP, OVA vs PBS): 0.347; Serpinb6b: LN (average fold change) (cluster ID 4, PP, OVA vs PBS): −0.432; Ssna1: LN (average fold change) (cluster ID 4, PP, OVA vs PBS): 0.346; Taf7: LN (average fold change) (cluster ID 4, PP, OVA vs PBS): −0.409; Taf10: LN (average fold change) (cluster ID 4, PP, OVA vs PBS): −0.422; Tagap: LN (average fold change) (cluster ID 4, PP, OVA vs PBS): 0.423; Tcrg-C1: LN (average fold change) (cluster ID 4, PP, OVA vs PBS): 0.484; Tgoln1: LN (average fold change) (cluster ID 4, PP, OVA vs PBS): −0.209; Timm13: LN (average fold change) (cluster ID 4, PP, OVA vs PBS): 0.230; Tnf: LN (average fold change) (cluster ID 4, PP, OVA vs PBS): 0.465; Trim8: LN (average fold change) (cluster ID 4, PP, OVA vs PBS): 0.530; Trps1: LN (average fold change) (cluster ID 4, PP, OVA vs PBS): −0.444; Tsc22d3: LN (average fold change) (cluster ID 4, PP, OVA vs PBS): 0.359; Tspan32: LN (average fold change) (cluster ID 4, PP, OVA vs PBS): 0.324; Ttc19: LN (average fold change) (cluster ID 4, PP, OVA vs PBS): −0.499; Tuba4a: LN (average fold change) (cluster ID 4, PP, OVA vs PBS): −0.342; Tubb4b: LN (average fold change) (cluster ID 4, PP, OVA vs PBS): −0.252; Txk: LN (average fold change) (cluster ID 4, PP, OVA vs PBS): −0.188; Vegfa: LN (average fold change) (cluster ID 4, PP, OVA vs PBS): −0.252; VgIl4: LN (average fold change) (cluster ID 4, PP, OVA vs PBS): −0.302; Zc3hav1: LN (average fold change) (cluster ID 4, PP, OVA vs PBS): −0.303; Zfand5: LN (average fold change) (cluster ID 4, PP, OVA vs PBS): −0.245; 1810037l17Rik: percentage of expressing cells in OVA-treated group (cluster ID 5, PP): 0.446; Bcl2: percentage of expressing cells in OVA-treated group (cluster ID 5, PP): 0.863
